Common to all, as to experiment: SPR, antibody captured, C2 as analyte;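 note: biacore SPR at 37 °C, anti-C2 mAbs captured via goat anti-human IgG on CM5 chips, double-referenced sensorgrams fit to a 1:1 kinetic or steady-state model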
On the technique in general: In SPR one partner is held on a chip, and binding of the other changes the refractive index at the surface.

Test [1] addresses T1, human C2 E324A (human, UniProt P06681 21-752).
T1 sequence: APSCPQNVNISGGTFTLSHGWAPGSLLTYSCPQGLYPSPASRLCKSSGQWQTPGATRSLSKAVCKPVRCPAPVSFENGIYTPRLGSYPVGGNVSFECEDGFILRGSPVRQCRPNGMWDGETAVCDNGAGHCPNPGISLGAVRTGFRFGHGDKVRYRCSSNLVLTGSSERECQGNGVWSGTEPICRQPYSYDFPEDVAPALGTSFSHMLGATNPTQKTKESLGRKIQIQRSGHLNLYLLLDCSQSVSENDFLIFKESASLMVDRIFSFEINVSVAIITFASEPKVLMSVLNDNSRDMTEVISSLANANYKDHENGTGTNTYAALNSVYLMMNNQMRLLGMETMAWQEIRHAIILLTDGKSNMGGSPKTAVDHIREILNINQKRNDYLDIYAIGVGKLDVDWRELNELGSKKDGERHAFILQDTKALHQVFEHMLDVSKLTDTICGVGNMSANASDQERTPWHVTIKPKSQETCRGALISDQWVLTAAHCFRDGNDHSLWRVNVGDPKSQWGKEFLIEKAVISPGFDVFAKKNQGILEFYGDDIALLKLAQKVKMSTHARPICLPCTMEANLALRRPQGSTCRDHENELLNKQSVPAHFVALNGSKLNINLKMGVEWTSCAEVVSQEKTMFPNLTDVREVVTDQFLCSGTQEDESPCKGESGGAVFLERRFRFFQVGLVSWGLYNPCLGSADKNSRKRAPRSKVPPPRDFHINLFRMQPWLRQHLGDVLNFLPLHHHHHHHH

In test [2] the target is T2, human C2 K329A (human, UniProt P06681 21-752).
T2 sequence: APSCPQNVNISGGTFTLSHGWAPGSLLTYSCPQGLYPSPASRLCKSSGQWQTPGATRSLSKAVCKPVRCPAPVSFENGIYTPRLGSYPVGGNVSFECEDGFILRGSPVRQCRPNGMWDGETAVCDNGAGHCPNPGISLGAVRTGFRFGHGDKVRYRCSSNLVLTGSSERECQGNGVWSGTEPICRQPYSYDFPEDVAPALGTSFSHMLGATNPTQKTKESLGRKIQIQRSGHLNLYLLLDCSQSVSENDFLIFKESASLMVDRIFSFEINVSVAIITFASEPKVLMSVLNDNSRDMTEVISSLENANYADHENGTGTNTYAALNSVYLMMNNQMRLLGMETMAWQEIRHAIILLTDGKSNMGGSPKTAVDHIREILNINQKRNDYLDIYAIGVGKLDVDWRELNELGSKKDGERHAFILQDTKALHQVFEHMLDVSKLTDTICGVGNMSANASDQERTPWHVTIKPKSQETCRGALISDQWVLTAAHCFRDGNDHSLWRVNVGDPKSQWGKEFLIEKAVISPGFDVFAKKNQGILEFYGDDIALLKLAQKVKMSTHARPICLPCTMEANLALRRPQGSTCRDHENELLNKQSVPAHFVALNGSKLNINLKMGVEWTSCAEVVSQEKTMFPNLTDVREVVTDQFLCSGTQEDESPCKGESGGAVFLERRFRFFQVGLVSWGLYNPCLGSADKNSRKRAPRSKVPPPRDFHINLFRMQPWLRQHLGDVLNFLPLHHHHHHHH

Test [3] concerns the target T3, human C2 R434A (human, UniProt P06681 21-752).
T3 sequence: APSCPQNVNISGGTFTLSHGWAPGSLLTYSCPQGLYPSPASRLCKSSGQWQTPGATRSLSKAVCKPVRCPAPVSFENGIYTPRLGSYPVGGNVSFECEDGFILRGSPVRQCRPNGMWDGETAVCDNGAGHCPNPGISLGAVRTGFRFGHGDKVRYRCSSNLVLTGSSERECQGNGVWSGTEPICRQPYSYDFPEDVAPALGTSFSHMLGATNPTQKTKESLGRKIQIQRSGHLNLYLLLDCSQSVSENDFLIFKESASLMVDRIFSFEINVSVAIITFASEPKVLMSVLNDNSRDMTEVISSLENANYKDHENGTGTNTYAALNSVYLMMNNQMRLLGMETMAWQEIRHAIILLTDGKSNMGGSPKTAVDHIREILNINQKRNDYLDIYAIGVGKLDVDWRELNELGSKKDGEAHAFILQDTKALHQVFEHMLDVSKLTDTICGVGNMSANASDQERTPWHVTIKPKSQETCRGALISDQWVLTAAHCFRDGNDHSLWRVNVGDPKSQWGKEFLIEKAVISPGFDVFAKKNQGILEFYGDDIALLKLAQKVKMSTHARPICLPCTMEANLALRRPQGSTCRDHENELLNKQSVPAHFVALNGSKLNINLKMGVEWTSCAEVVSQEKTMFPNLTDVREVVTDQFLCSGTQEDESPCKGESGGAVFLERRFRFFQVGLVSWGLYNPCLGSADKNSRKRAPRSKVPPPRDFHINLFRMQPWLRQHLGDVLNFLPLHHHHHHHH

For test [4], the target named is T4, human C2 D561A (human, UniProt P06681 21-752).
T4 sequence: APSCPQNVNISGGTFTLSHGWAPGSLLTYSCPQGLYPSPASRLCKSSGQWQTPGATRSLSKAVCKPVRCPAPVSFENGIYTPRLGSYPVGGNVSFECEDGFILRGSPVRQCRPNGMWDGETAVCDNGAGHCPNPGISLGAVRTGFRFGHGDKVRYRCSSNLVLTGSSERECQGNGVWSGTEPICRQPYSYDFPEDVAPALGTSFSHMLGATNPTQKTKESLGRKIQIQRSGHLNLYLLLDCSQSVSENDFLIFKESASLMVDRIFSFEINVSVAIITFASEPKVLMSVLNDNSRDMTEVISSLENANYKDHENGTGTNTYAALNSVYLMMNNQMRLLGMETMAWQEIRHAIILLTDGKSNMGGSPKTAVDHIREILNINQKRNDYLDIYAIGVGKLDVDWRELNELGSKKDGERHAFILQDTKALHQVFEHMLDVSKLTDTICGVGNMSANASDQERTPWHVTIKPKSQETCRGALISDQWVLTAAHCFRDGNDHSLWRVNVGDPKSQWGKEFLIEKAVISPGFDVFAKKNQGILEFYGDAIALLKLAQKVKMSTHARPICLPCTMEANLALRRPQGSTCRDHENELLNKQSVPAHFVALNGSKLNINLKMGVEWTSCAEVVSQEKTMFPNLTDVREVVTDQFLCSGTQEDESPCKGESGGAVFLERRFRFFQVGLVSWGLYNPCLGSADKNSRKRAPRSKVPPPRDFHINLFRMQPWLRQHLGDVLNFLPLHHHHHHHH

The record followed here is patent US20220332804A1 (CSL INNOVATION, published 2022).

Usually Kd stands for the free concentration of one partner at which half of the binding sites on the other are occupied at equilibrium, for simple one-to-one binding.

B1: RF16-226 (antibody, human IgG4 S228P, lambda)
heavy: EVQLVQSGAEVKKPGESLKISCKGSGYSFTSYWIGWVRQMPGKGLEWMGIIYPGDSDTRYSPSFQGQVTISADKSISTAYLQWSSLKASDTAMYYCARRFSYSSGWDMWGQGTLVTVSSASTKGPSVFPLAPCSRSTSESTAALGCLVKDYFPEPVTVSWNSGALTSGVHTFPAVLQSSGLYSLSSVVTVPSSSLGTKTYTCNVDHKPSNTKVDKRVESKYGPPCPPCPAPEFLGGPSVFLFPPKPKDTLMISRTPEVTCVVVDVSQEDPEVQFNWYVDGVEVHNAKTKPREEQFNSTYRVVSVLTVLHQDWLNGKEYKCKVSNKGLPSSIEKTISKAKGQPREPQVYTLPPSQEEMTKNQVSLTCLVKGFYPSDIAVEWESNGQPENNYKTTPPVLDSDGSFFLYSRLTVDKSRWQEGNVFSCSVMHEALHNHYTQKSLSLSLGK
light: SYELTQPPSVSVSPGQTARITCSGDALTSKYVAWYQQKSGLAPLLVIYEDTRRPSGIPAKFSGSSSGSVATLTISGAHGDDEADYYCYSTDASGHQRVFGGGTKLTVLSQPKAAPSVTLFPPSSEELQANKATLVCLISDFYPGAVTVAWKADGSPVKAGVETTKPSKQSNNKYAASSYLSLTPEQWKSHRSYSCQVTHEGSTVEKTVAPTECS
notes: pH-dependent anti-C2 antibody from a phage display library; also called WT
As to B1, the Kd in test [1] is 12.2 nM; in test [2], 25.6 nM; in test [3] it was 142 nM; in test [4], 102 nM.
